The chains are these.
B1: Stage IV sporulation protein FB (Bacillus subtilis), P26937 (parent)
chain: MNKWLDLILKIHVHPFLWIIAALGLLTGHMKALLCLLLIVLIHELGHAALAVFFSWRIKRVFLLPFGGTVEVEEHGNRPLKEEFAVIIAGPLQHIWLQFAAWMLAEVSVIHQHTFELFTFYNLSILFVNLLPIWPLDGGKLLFLLFSKQLPFQKAHRLNLKTSLCFCLLLGCWVLFVIPLQISAWVLFVFLAVSLFEEYRQRHYIHVRFLLERYYGKNRELEKLLPLTVKAEDKVYHVMAEFKRGCKHPIIIEKSGQKLSQLDENEVLHAYFADKRTNSSMEELLLPY
partner: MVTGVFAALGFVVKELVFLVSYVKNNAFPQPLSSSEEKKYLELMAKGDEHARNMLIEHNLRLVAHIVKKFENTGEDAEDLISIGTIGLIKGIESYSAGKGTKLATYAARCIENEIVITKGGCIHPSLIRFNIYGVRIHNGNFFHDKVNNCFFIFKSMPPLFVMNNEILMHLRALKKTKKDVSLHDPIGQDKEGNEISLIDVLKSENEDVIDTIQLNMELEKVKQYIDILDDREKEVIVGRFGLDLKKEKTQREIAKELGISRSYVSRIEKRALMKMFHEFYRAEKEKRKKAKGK

The experiment covers variants of B1. Particulars: with rpsk_bacsu sigK.
For MNKWLDLILKIHVHPFLWIIAALGLLTGHMKALLCLLLIVLIHQLGHAALAVFFSWRIKRVFLLPFGGTVEVEEHGNRPLKEEFAVIIAGPLQHIWLQFAAWMLAEVSVIHQHTFELFTFYNLSILFVNLLPIWPLDGGKLLFLLFSKQLPFQKAHRLNLKTSLCFCLLLGCWVLFVIPLQISAWVLFVFLAVSLFEEYRQRHYIHVRFLLERYYGKNRELEKLLPLTVKAEDKVYHVMAEFKRGCKHPIIIEKSGQKLSQLDENEVLHAYFADKRTNSSMEELLLPY [E44Q], the “effect of a mutation on the interaction” value is on record as “disrupting interaction”.
